The values that follow come from article PMC2734569, “Functional mapping of the fission yeast DNA polymerase δ B-subunit Cdc1 by site-directed and random pentapeptide insertion mutagenesis” (BMC Molecular Biology, 2009).

Experiment in all cases: two-hybrid; LexA-Cdc1 bait (pBTM116 or pBTM116BN) with Gal4-Pol3 prey and co-expressed c-myc-tagged Cdc27 (pAA-Cdc27) in S. cerevisiae CTY10-5d; ONPG liquid culture beta-galactosidase assay, mean of triplicates, as percent of wild-type Cdc1
Common to all, as to details: partners not purified

One experiment has as its target T1, Cdc1-E5 (Schizosaccharomyces pombe, UniProt P87324 1-462, Val-MetGlyTyrProVal-Met).
T1 construct: Cdc1, S. pombe, with a pentapeptide inserted after residue 86; source: yeast two-hybrid fusion, in S. cerevisiae CTY10-5d
T1 sequence (looked up): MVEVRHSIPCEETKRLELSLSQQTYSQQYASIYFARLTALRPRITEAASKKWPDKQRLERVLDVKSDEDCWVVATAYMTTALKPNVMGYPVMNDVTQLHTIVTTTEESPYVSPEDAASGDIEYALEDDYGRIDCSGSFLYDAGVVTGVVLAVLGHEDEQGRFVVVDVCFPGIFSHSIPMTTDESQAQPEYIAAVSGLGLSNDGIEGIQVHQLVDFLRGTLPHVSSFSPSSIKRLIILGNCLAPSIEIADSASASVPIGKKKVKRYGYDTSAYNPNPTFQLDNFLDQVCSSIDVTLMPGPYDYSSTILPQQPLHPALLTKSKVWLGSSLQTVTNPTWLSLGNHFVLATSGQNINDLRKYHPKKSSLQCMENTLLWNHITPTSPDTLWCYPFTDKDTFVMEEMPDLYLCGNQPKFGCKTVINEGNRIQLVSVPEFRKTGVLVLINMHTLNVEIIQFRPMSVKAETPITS

Another experiment addresses T2, Cdc1-J21 (Schizosaccharomyces pombe, UniProt P87324 1-462, Leu-GlyValProGlnLeu-Asp).
T2 construct: Cdc1, S. pombe, with a pentapeptide inserted after residue 275; source: yeast two-hybrid fusion, in S. cerevisiae CTY10-5d
T2 sequence (looked up): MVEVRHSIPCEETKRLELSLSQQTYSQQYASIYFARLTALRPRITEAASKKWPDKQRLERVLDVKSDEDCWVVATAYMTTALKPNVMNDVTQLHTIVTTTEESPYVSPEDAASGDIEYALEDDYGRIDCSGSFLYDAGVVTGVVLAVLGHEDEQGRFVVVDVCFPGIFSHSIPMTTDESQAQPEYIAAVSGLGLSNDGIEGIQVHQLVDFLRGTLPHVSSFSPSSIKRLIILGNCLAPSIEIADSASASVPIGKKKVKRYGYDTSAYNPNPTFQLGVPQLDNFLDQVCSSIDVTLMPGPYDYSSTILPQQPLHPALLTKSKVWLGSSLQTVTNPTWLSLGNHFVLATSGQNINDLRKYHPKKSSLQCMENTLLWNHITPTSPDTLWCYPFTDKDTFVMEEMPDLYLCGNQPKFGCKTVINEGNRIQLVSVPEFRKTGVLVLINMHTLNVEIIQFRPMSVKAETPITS

Another experiment addresses T3, Cdc1-A10 (Schizosaccharomyces pombe, UniProt P87324 1-462, Asn328Ala | Pro329Ala).
T3 construct: Cdc1, S. pombe, double point mutant (A5 and A6 combined); source: yeast two-hybrid fusion, in S. cerevisiae CTY10-5d
T3 sequence (looked up): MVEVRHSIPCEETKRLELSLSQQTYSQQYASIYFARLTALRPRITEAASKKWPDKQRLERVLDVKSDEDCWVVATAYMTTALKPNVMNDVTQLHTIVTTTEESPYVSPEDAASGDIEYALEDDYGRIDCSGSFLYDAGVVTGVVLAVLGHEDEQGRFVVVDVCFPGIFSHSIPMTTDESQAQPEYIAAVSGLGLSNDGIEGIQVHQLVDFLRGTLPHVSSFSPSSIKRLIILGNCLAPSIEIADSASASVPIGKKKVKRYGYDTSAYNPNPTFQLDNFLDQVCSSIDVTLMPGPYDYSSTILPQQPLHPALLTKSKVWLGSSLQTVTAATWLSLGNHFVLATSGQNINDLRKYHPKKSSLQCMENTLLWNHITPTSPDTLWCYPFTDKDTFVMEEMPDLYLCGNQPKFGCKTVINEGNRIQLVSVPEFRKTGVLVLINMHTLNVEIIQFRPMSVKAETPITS

Another experiment deals with T4, Cdc1-E2 (Schizosaccharomyces pombe, UniProt P87324 1-26).
T4 construct: Cdc1, S. pombe, truncated after amino acid 26 by a 16 nt insertion; residues coded by the 16 nt insertion before the stop codon (printed as GlyValProLysTer); source: yeast two-hybrid fusion, in S. cerevisiae CTY10-5d
T4 chain: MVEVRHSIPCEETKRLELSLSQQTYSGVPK

B1: Pol3 (fission yeast DNA polymerase delta catalytic subunit) (natural protein, Schizosaccharomyces pombe, UniProt P30316 1-1086, looked up)
chain: MTDRSSNEGVVLNKENYPFPRRNGSIHGEITDVKRRRLSERNGYGDKKGSSSKEKTSSFEDELAEYASQLDQDEIKSSKDQQWQRPALPAINPEKDDIYFQQIDSEEFTEGSVPSIRLFGVTDNGNSILVHVVGFLPYFYVKAPVGFRPEMLERFTQDLDATCNGGVIDHCIIEMKENLYGFQGNEKSPFIKIFTTNPRILSRARNVFERGEFNFEELFPVGVGVTTFESNTQYLLRFMIDCDVVGMNWIHLPASKYQFRYQNRVSNCQIEAWINYKDLISLPAEGQWSKMAPLRIMSFDIECAGRKGVFPDPSIDPVIQIASIVTQYGDSTPFVRNVFCVDTCSQIVGTQVYEFQNQAEMLSSWSKFVRDVDPDVLIGYNICNFDIPYLLDRAKSLRIHNFPLLGRIHNFFSVAKETTFSSKAYGTRESKTTSIPGRLQLDMLQVMQRDFKLRSYSLNAVCSQFLGEQKEDVHYSIITDLQNGTADSRRRLAIYCLKDAYLPQRLMDKLMCFVNYTEMARVTGVPFNFLLARGQQIKVISQLFRKALQHDLVVPNIRVNGTDEQYEGATVIEPIKGYYDTPIATLDFSSLYPSIMQAHNLCYTTLLDSNTAELLKLKQDVDYSVTPNGDYFVKPHVRKGLLPIILADLLNARKKAKADLKKETDPFKKAVLDGRQLALKVSANSVYGFTGATNGRLPCLAISSSVTSYGRQMIEKTKDVVEKRYRIENGYSHDAVVIYGDTDSVMVKFGVKTLPEAMKLGEEAANYVSDQFPNPIKLEFEKVYFPYLLISKKRYAGLFWTRTDTYDKMDSKGIETVRRDNCPLVSYVIDTALRKMLIDQDVEGAQLFTKKVISDLLQNKIDMSQLVITKALSKTDYAAKMAHVELAERMRKRDAGSAPAIGDRVAYVIIKGAQGDQFYMRSEDPIYVLENNIPIDAKYYLENQLSKPLLRIFEPILGEKASSLLHGDHTRTISMAAPSVGGIMKFAVKVETCLGCKAPIKKGKTALCENCLNRSAELYQRQVAQVNDLEVRFARLWTQCQRCQGSMHQDVICTSRDCPIFYMRIAEHKKLQQSVDLLKRFDEMSW
notes: DNA polymerase delta catalytic subunit Pol3, S. pombe; prey plasmid named pACT-Pol3 in the results and pGAD2F-Pol3 in the methods; also called Gal4-Pol3; pACT-Pol3; source: yeast two-hybrid fusion, in S. cerevisiae CTY10-5d
B1: the “two-hybrid beta-galactosidase activity, % of wild-type Cdc1” value was 48% with Cdc1-E5, < 1% in the experiment with Cdc1-J21, < 1% with Cdc1-A10 and < 1% in the experiment with Cdc1-E2.
